Assay [1] concerns the target PTPN11/SHP2 (UniProt Q06124). Briefly: FLAG affinity purification, Western blot. The conditions noted are these: reference: wild type; sites Y241,Y263. On the technique in general: A western blot detects proteins with antibodies after separation by electrophoresis.
Assay [2] concerns the target GRB2 (UniProt P62993). Briefly: FLAG affinity purification, Western blot. To be noted: reference: wild type.

With “MPZL1 (PZR) (from UniProt O95297) Y241F/Y263F”, the “binding against the reference” value in assay [1] is “lost”.

On to MPZL1 (PZR) (from UniProt O95297) Y263F, for which the “binding against the reference” value in assay [2] (sites Y263) is “weaker”.

As to MPZL1 (PZR) (from UniProt O95297) Y241F, the “binding against the reference” value in assay [2] (sites Y241) is “weaker”.
